Values of other authors as cited in article PMC2783296.

Target: Glu134 (UniProt position 134, VVLAIERYVVV)
Assay: IR
Conditions: Photoactivated metarhodopsin II (all-trans retinal, unprotonated Schiff base)

Rhodopsin (metarhodopsin II photointermediate) (Bos taurus (inferred; species not stated in the article))
pKa: 6.3
